# Assay results taken from patent US20190201542A1, “ANTI-DLL3 DRUG CONJUGATES FOR TREATING TUMORS AT RISK OF NEUROENDOCRINE TRANSITION” (ABBVIE STEMCENTRX LLC, priority 2016, published 2019).
# T1: DLL3 (Homo sapiens, UniProt Q9NYJ7)
# T1 sequence (Q9NYJ7 27-618): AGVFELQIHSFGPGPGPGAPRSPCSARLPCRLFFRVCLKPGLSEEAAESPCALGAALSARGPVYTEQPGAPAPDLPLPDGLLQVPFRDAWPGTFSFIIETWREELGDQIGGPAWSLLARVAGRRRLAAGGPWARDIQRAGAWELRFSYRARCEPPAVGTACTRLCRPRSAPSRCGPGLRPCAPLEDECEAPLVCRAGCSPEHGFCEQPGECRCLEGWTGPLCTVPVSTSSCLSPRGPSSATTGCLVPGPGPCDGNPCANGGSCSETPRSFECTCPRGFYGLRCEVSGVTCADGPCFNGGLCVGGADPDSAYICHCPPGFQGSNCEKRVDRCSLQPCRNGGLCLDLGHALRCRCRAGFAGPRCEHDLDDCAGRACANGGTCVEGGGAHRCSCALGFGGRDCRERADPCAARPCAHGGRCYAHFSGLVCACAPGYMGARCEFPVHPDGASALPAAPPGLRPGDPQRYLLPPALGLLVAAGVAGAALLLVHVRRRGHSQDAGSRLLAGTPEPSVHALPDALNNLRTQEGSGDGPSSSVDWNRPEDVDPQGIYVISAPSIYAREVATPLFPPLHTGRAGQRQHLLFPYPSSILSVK
# B1: SC16.23: murine anti-DLL3 antibody (antibody, V domains shown)
# VL: QIVLTQSPAIMSASPGEKVTLTCSASSSVSSRYLYWYQQKPGSSPKLWIYSTSNLASGVPARFSGSGSGTSYSLIISSMEAEDAASYFCHQWSNYPLTFGAGTKLELK
# VH: QVTLKESGPGILQPSQTLSLTCSFSGFSLSTSNTGIGWIRQPSGTGLEWLAHIWWNDDKYYNPSLKSRLTISKETSNNQVFLKITNVDTADTASYFCVQIGRDYSNYAWYFDVWGAGTTVTVSS
# Target: T1, DLL3
# Test: Binning (competitive antibody binding)
# Source text: It is also possible to characterize the antibodies of the invention in terms of the group or “bin” to which they belong. “Binning” refers to the use of competitive antibody binding assays to identify pairs of antibodies that are incapable of binding an immunogenic determinant simultaneously, thereby identifying antibodies that “compete” for binding. Competing antibodies may be determined by an assay in which the antibody or immunologically functional fragment being tested prevents or inhibits specific binding of a reference antibody to a common antigen. Typically, such an assay involves the use of purified antigen (e.g., DLL3, ASCL1, or a domain or fragment thereof) bound to a solid surface or cells, an unlabeled test antibody and a labeled reference antibody. Competitive inhibition is measured by determining the amount of label bound to the solid surface or cells in the presence of the test antibody. Additional details regarding methods for determining competitive binding are provided in the Examples herein. […]
# A schematic summary of the domain-level epitope mapping data of the antibodies tested is presented in FIG. 2, with antibodies binding a linear epitope underlined and, where determined, the corresponding bin noted in parenthesis. […]
molecule,measurement,value
B1,Binning with SC16.34 or SC16.56,not to bin with SC16.34 or SC16.56
